In publication PMC12102760:

Molecular target: IgG 1C1
Assay: BLI; IgG captured on anti-human biosensors, quenched with Fc; receptor ECD-Fc in solution, three-fold dilutions from 300 nM; PBS, 1% BSA, 0.05% Tween 20; 25°C; 1:1 binding model

Sequence of IgG 1C1 (heavy, as listed by the source, chain 1 of 2): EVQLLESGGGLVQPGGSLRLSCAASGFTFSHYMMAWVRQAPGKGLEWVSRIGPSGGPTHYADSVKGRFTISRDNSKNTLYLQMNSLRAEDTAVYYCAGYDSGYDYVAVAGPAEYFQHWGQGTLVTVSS
Sequence of IgG 1C1 (light, as listed by the source, chain 2 of 2): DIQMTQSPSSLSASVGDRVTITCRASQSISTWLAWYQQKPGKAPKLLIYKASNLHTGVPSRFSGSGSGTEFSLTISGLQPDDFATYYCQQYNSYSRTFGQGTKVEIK

- Kd: 970 nM
B1: EphA8-Fc (Fc fusion)
chain: ARGEVNLLDTSTIHGDWGWLTYPAHGWDSINEVDESFQPIHTYQVCNVMSPNQNNWLRTSWVPRDGARRVYAEIKFTLRDCNSMPGVLGTCKETFNLYYLESDRDLGASTQESQFLKIDTIAADESFTGADLGVRRLKLNTEVRSVGPLSKRGFYLAFQDIGACLAILSLRIYYKKCPAMVRNLAAFSEAVTGADSSSLVEVRGQCVRHSEERDTPKMYCSAEGEWLVPIGKCVCSAGYEERRDACVACELGFYKSAPGDQLCARCPPHSHSAAPAAQACHCDLSYYRAALDPPSSACTRPPSAPVNLISSVNGTSVTLEWAPPLDPGGRSDITYNAVCRRCPWALSRCEACGSGTRFVPQQTSLVQASLLVANLLAHMNYSFWIEAVNGVSDLSPEPRRAAVVNITTNQAAPSQVVVIRQERAGQTSVSLLWQEPEQPNGIILEYEIKYYEKDKEMQSYSTLKAVTTRATVSGLKPGTRYVFQVRARTSAGCGRFSQAMEVETGKPRPRYDTRT
